Measured values published in patent US7838231 (REGENTS OF THE UNIVERSITY OF MICHIGAN, dated 2010).

Key:
Test in all cases: direct yeast two-hybrid assay
[1] = molecular target: T1, NPHP3, human full length, yeast two-hybrid prey (human, UniProt Q7Z494 1-1330)
T1 sequence (looked up): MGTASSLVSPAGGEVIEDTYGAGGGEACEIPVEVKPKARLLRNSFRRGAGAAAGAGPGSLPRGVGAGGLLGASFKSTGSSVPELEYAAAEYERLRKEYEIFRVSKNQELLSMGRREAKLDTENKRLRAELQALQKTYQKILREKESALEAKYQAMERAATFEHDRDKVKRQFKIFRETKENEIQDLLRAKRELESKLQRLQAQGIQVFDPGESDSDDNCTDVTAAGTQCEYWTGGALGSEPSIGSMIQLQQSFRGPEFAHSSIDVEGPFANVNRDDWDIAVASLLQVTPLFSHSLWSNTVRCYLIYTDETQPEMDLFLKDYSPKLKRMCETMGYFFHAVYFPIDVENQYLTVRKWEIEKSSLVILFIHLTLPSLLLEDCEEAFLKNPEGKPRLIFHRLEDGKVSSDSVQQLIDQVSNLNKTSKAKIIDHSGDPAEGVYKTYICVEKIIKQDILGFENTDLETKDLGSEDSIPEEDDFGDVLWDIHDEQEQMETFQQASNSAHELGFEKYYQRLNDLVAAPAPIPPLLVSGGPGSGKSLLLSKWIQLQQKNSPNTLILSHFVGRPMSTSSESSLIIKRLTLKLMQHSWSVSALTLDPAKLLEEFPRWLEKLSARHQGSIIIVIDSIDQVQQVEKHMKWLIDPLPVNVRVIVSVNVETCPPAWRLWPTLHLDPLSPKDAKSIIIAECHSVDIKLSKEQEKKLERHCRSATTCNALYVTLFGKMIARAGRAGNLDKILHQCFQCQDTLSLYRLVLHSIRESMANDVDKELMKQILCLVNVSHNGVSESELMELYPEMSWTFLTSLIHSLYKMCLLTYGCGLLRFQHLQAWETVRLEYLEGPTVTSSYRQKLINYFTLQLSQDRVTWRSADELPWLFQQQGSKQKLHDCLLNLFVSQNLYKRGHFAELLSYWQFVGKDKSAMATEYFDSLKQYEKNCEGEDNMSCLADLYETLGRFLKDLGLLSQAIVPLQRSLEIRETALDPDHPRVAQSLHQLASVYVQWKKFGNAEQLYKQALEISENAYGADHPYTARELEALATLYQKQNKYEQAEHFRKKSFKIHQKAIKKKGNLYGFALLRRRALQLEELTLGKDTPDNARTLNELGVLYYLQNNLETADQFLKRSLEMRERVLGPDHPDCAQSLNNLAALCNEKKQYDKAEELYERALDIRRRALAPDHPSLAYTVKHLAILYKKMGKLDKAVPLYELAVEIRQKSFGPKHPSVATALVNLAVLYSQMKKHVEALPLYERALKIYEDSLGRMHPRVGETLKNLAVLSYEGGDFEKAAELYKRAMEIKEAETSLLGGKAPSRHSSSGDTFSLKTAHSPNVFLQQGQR

[2] = molecular target: T2, BBS2, human full length, yeast two-hybrid prey (human, UniProt Q9BXC9 1-721)
T2 sequence (looked up): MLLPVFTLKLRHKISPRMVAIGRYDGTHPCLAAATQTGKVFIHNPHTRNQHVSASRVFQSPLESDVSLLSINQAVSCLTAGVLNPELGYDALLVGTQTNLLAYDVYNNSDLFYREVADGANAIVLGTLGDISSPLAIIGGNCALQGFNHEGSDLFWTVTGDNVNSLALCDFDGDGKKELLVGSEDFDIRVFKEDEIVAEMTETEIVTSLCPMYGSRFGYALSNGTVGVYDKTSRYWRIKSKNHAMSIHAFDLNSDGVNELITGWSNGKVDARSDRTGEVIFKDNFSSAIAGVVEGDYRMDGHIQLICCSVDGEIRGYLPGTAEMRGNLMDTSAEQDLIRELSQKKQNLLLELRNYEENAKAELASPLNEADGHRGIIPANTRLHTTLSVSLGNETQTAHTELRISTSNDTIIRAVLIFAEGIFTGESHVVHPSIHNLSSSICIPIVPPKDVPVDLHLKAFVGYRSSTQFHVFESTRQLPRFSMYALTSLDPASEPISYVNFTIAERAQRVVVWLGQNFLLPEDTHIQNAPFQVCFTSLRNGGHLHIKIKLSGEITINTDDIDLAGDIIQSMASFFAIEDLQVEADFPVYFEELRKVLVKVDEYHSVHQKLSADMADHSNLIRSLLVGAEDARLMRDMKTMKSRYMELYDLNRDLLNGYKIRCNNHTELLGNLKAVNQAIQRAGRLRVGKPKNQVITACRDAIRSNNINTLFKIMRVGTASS

[3] = molecular target: T3, BBS7, human full length, yeast two-hybrid prey (human, UniProt Q8IWZ6 1-715)
T3 sequence (looked up): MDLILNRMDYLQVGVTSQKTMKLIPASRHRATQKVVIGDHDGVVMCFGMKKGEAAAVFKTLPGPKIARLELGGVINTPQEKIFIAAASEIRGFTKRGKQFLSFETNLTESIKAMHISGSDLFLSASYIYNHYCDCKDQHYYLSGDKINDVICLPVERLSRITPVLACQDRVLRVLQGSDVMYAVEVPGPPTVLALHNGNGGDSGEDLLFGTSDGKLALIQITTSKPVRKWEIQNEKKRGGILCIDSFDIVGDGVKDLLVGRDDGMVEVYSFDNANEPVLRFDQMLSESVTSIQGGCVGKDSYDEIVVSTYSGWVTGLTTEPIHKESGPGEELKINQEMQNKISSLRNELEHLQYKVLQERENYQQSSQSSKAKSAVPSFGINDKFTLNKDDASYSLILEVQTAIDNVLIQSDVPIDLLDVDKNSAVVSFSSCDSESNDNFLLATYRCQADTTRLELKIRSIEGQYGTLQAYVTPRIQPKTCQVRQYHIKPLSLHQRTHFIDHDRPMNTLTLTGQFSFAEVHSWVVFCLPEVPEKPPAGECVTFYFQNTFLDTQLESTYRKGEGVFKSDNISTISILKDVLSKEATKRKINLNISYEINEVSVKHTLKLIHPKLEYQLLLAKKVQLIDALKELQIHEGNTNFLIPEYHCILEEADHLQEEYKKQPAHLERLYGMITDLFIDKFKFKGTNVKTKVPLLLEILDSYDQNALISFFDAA

Measured: binding result

B1: full-length human nephrocystin-5 (NPHP5), yeast two-hybrid fusion (other, not shown: small tags and cut ends)
chain: MKPTGTDPRILSIAAEVAKSPEQNVPVILLKLKEIINITPLGSSELKKIKQDIYCYDLIQYCLLVLSQDYSRIQGGWTTISQLTQILSHCCVGLEPGEDAEEFYNELLPSAAENFLVLGRQLQTCFINAAKAEEKDELLHFFQIVTDSLFWLLGGHVELIQNVLQSDHFLHLLQADNVQIGSAVMMMLQNILQINSGDLLRIGRKALYSILDEVIFKLFSTPSPVIRSTATKLLLLMAESHQEILILLRQSTCYKGLRRLLSKQETGTEFSQELRQLVGLLSPMVYQEVEEQKLHQAACLIQAYWKGFQTRKRLKKLPSAVIALQRSFRSKRSKMLLEINRQKEEEDLKLQLQLQRQRAMRLSRELQLSMLEIVHPGQVEKHYREMEEKSALNIQKHWRGYRERKNFHQQRQSLIEYKAAVTLQRAALKFLAKCRKKKKLFAPWRGLQELTDARRVELKKRVDDYVRRHLGSPMSDVVSRELHAQAQERLQHYFMGRALEERAQQHREALIAQISTNVEQLMKAPSLKEAEGKEPELFLSRSRPVAAKAKQAHLTTLKHIQAPWWKKLGEESGDEIDVPKDELSIELENLFIGGTKPP
notes: Full-length NPHP5 cDNA (598 amino acid residues) fused to a GAL4 domain; also called KIAA0036
no binding: [1] | [2] | [3]
